According to patent US8524454 (RESEARCH FOUNDATION OF STATE UNIVERSITY OF NEW YORK, dated 2013):

B1: holo-transcobalamin (recombinant human TC saturated with cobalamin) (ligand, UniProt P20062 19-427, looked up)
chain: EMCEIPEMDSHLVEKLGQHLLPWMDRLSLEHLNPSIYVGLRLSSLQAGTKEDLYLHSLKLGYQQCLLGSAFSEDDGDCQGKPSMGQLALYLLALRANCEFVRGHKGDRLVSQLKWFLEDEKRAIGHDHKGHPHTSYYQYGLGILALCLHQKRVHDSVVDKLLYAVEPFHQGHHSVDTAAMAGLAFTCLKRSNFNPGRRQRITMAIRTVREEILKAQTPEGHFGNVYSTPLALQFLMTSPMRGAELGTACLKARVALLASLQDGAFQNALMISQLLPVLNHKTYIDLIFPDCLAPRVMLEPAAETIPQTQEIISVTLQVLSLLPPYRQSISVLAGSTVEDVLKKAHELGGFTYETQASLSGPYLTSVMGKAAGEREFWQLLRDPNTPLLQGIADYRPKDGETIELRLVSW
notes: also called TC-Cbl; holo TC

Columns and labels:
[1] = biological target: T1, transcobalamin receptor (TCblR) purified from human placenta (human, UniProt Q9NPF0 32-282); assay: radiolabeled Cbl-TC binding to purified TCblR competed by unlabeled holo-TC or apo-TC (FIG. 12)
T1 construct: also called TCR; purified TCblR
T1 sequence: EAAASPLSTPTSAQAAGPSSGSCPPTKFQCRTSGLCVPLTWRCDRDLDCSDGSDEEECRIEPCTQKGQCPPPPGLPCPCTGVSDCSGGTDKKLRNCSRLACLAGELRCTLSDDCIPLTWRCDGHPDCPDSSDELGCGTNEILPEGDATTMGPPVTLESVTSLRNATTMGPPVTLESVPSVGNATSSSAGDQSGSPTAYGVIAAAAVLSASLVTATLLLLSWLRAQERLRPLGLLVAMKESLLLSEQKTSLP

[2] = biological target: T2, recombinant extracellular fragment of TCblR produced in HEK 293 cells (human, UniProt Q9NPF0 32-247); assay: not described; extracellular fragment expressed in HEK 293 cells
T2 construct: Highly glycosylated; also called EXC fragment of TCblR; recombinant TCblR extracellular domain
T2 sequence: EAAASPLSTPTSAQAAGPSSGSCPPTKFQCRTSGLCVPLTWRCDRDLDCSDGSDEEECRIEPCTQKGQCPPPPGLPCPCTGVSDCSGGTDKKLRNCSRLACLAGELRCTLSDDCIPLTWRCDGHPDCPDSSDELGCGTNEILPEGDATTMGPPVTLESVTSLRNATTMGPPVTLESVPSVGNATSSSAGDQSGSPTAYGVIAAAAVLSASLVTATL

[3] = biological target: B1; assay: binding studies with the recombinant extracellular domain

## B1
[1]
  fold difference in affinity (holo TC against apo TC): 28 fold
[2]
  fold higher affinity (holo-TC against the apo protein): 28 fold

B2: recombinant extracellular (EXC) domain of TCblR produced in NSO myeloma cells, cleaved from the Fc fusion protein (receptor)
chain: SPLSTPTSAQAAGPSSGSCPPTKFQCRTSGLCVPLTWRCDRDLDCSDGSDEEECRIEPCTQKGQCPPPPGLPCPCTGVSDCSGGTDKKLRNCSRLACLAGELRCTLSDDCIPLTWRCDGHPDCPDSSDELGCGTNEILPEGDATTMGPPVTLESVTSLRNATTMGPPVTLESVPSVGNATSSSAGDQSGSPTAY
notes: Fully glycosylated; also called EXC fragment; EXC-TCblR; not shown: some amino acids of the original Fc fusion protein remained in the cleaved fragment; they are not specified
[3]
  binding result: binds
